Residue numbers refer to the chain shown, from its start. Names may count otherwise.
B1: A113C arrestin-1 (bovine, His(6), C63A/C143A) labeled with monobromobimane (other)
chain: MHHHHHHKANKPAPNHVIFKKISRDKSVTIYLGKRDYIDHVERVEPVDGVVLVDPELVKGKRVYVSLTAAFRYGQEDIDVMGLSFRRDLYFSQVQVFPPVGASGATTRLQESLIKKLGCNTYPFLLTFPDYLPCSVMLQPAPQDVGKSAGVDFEIKAFATHSTDVEEDKIPKKSSVRLLIRKVQHAPRDMGPQPRAEASWQFFMSDKPLRLAVSLSKEIYYHGEPIPVTVAVTNSTEKTVKKIKVLVEQVTNVVLYSSDYYIKTVAAEEAQEKVPPNSSLTKTLTLVPLLANNRERRGIALDGKIKHEDTNLASSTIIKEGIDKTVMGILVSYQIKVKLTVSGLLGELTSSEVATEVPFRLMHPQPEDPDTAKESFQDENFVFEEFARQNLKDAGEYKEEKTDQEAAMDE
modifications: monobromobimane (mBBr) on Cys 113
notes: Cysteine-substitution mutant, made in Pichia pastoris
B2: D183C arrestin-1 (bovine, His(6), C63A/C143A) labeled with monobromobimane (other)
chain: B1 chain with C119A, D189C
modifications: monobromobimane (mBBr) on Cys 183
notes: as for B1
B3: D362C arrestin-1 (bovine, His(6), C63A/C143A) labeled with monobromobimane (other)
chain: B1 chain with C119A, D368C
modifications: monobromobimane (mBBr) on Cys 362
notes: as for B1

What follows are molecules tested against bovine enolase-1 (bovine, UniProt Q9XSJ4 1-434, AlexaFluor-546 maleimide on reactive cysteines (pulldown assay only; unlabeled in the quench and activity assays)) (assay: KI quench protection of mBBr-labeled arrestin-1; 0.25 µM arrestin-1, 5 µM (20-fold) enolase-1).
bovine enolase-1, sequence (Q9XSJ4 whole entry): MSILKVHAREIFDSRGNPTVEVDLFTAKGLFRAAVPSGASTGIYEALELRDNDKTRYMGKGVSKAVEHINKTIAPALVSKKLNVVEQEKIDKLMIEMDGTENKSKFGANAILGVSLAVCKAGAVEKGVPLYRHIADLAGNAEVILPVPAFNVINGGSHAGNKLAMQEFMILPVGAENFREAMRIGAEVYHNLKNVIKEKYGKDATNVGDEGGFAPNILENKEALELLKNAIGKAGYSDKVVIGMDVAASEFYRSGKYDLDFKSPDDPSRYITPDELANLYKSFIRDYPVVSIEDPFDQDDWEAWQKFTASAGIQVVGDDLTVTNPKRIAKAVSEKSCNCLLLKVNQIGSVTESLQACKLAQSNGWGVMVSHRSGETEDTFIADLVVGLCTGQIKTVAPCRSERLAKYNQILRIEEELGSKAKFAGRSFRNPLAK
Protocol: C. Quenching assay. Cysteine mutants of arrestin-1 were labeled with monobromobimane (mBBr, ThermoFisher), reacting the arrestin-1 protein with 100-fold molar excess of the fluorescent label for two hours at room temperature. The unreacted label was removed by dialyzing against three sequential changes of 500-volumes of LAP200 buffer. […] Fluorescence quenching of the mBBr fluorophore was performed using 0.25 μM mBBr-labeled arrestin-1 with 100 mM potassium iodide in the presence or absence of 5 μM bovine enolase-1 that had been heterologously expressed and purified as previously described for arrestin-1, monitoring fluorescence emission at 470 nm. To determine the degree to which enolase-1 shielded a residue from quenching by potassium iodide, a protection factor was calculated as follows: […]
C. Mapping interaction of arrestin-1 with enolase-1. […] The fluorescence emission of the mBBr-labeled arrestin-1 with and without potassium iodide was measured to determine the range of quenching by KI. The fluorescence emission quench by KI with and without enolase-1 was then measured. A quench protection factor was calculated as described in the experimental procedures (Table 2). […] When mapped onto the surface of the arrestin-1 structure, these residues largely mapped to a single surface along the “bottom” of the arrestin protein (FIG. 2B).
With “E393C arrestin-1 (bovine, His(6), C63A/C143A) labeled with monobromobimane (from UniProt P08168 2-404)” the F(A+E+K) (fluorescence with enolase-1 and KI) was 953 and the Pf (quench protection factor) was 0.134. Work on “S199C arrestin-1 (bovine, His(6), C63A/C143A) labeled with monobromobimane (from UniProt P08168 2-404)” yielded a F(A+E+K) (fluorescence with enolase-1 and KI) of 636 and a Pf (quench protection factor) of -0.001. Molecule “V139C arrestin-1 (bovine, His(6), C63A/C143A) labeled with monobromobimane (from UniProt P08168 2-404)” has a F(A+E+K) (fluorescence with enolase-1 and KI) of 778 and a Pf (quench protection factor) of -0.001. “S86C arrestin-1 (bovine, His(6), C63A/C143A) labeled with monobromobimane (from UniProt P08168 2-404)” showed a F(A+E+K) (fluorescence with enolase-1 and KI) of 6160 and a Pf (quench protection factor) of 0.073. “Y25C arrestin-1 (bovine, His(6), C63A/C143A) labeled with monobromobimane (from UniProt P08168 2-404)” was tested, and the F(A+E+K) (fluorescence with enolase-1 and KI) was 600 and the Pf (quench protection factor) was -0.011. For “W194C arrestin-1 (bovine, His(6), C63A/C143A) labeled with monobromobimane (from UniProt P08168 2-404)”, the F(A+E+K) (fluorescence with enolase-1 and KI) was 14000 and the Pf (quench protection factor) was 0.012. “S251C arrestin-1 (bovine, His(6), C63A/C143A) labeled with monobromobimane (from UniProt P08168 2-404)” showed a F(A+E+K) (fluorescence with enolase-1 and KI) of 730 and a Pf (quench protection factor) of 0.011. With “Y125C arrestin-1 (bovine, His(6), C63A/C143A) labeled with monobromobimane (from UniProt P08168 2-404)” the F(A+E+K) (fluorescence with enolase-1 and KI) was 14000 and the Pf (quench protection factor) was 0.012. Molecule “I72C arrestin-1 (bovine, His(6), C63A/C143A) labeled with monobromobimane (from UniProt P08168 2-404)” has a F(A+E+K) (fluorescence with enolase-1 and KI) of 630 and a Pf (quench protection factor) of 0.002. Work on “D317C arrestin-1 (bovine, His(6), C63A/C143A) labeled with monobromobimane (from UniProt P08168 2-404)” yielded a F(A+E+K) (fluorescence with enolase-1 and KI) of 11500 and a Pf (quench protection factor) of 0.002. “S231C arrestin-1 (bovine, His(6), C63A/C143A) labeled with monobromobimane (from UniProt P08168 2-404)” was tested, and the F(A+E+K) (fluorescence with enolase-1 and KI) was 695 and the Pf (quench protection factor) was 0.002. “R18C arrestin-1 (bovine, His(6), C63A/C143A) labeled with monobromobimane (from UniProt P08168 2-404)” was tested, and the F(A+E+K) (fluorescence with enolase-1 and KI) was 963 and the Pf (quench protection factor) was -0.005. For B1, the “F(A+E+K) (fluorescence with enolase-1 and KI)” value was 3460 and the “Pf (quench protection factor)” value was 0.109. For B2, the “F(A+E+K) (fluorescence with enolase-1 and KI)” value was 19200 and the “Pf (quench protection factor)” value was 0.787. With B3 the “F(A+E+K) (fluorescence with enolase-1 and KI)” value was 5490 and the “Pf (quench protection factor)” value was 1.2.

Source: patent publication US20230174598A1 (UNIVERSITY OF FLORIDA RESEARCH FOUNDATION, published 2023)
